Data on 13 molecules can be found in patent US20140057807A1 (UNIVERSITY OF CHICAGO, published 2014).

In experiment [1] the target is T1, human Abl SH2 domain (human, UniProt P00519 112-232, limits assumed).
T1 construct: domain: SH2 domain; poly-histidine tagged in selection; tag cleaved for SPR and crystals; also called Ab1SH2; SH2 domain of Abl kinase
T1 sequence (looked up): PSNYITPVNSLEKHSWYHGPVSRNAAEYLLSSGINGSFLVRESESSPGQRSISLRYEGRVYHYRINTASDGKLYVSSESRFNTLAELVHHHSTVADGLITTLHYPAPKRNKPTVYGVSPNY
As to the kind of experiment: phage display selection hit, BL2 library.

Experiment [2] addresses T2, yeast small ubiquitin-like modifier protein (yeast, UniProt Q12306 3-98 = SUMO).
T2 construct: GST fusion in most phage ELISAs, His-tagged or tag-cleaved elsewhere; also called ySUMO; yeast SUMO
As to the kind of experiment: SPR; column 'Estimated Kd (nM)' [Continued]. In a few lines: (§1)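 Purified His-tagged molecules were captured on an NTA surface of a Biacore 2000 to reach a theoretical maximum target response of 100-200 RU, and target at varying concentrations was flowed at 30 μL/min. Estimated Kd values come from surface plasmon resonance binding signals, analysed either by kinetic fitting in BIAevaluation software or by fitting equilibrium responses to a saturation binding curve with 1:1 binding.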

Experiment [3] addresses T1, human Abl SH2 domain. As to the kind of experiment: Kd (nM) column of the drawn table; the method for this clone is not stated (SH13 came directly from the phage display library).
Experiment [4] concerns the target T1, human Abl SH2 domain. As to the kind of experiment: method not given.
The target in experiment [5] is T2, yeast small ubiquitin-like modifier …. Put plainly: titration phage ELISA. As for the experimental part:
hSUMO1-binding cradle molecules had varied ability to discriminate hSUMO1 and ySUMO as assessed by phage ELISA (FIGS. 25A and 26A).
For phage amplification, E. coli XL1-Blue cells transformed with the LacI containing plasmid pMCSG21 (Stols, et al., Protein Express. Purif. (2007) 53:396-403) (termed “XL21” hereafter) were used. Cradle molecule displaying phage were prepared by growing XL21 cells transfected with phagemid of individual clones in the presence of 0.2 mM IPTG and helper phage K07 (Koide, A., and Koide, S., supra, 2007; Sidhu, et al., supra, 2000). Cultures were then centrifuged and phage containing supernatant used for ELISA assays. All incubations were at room temperature. In all instances except for the phage titration experiment used to test hSUMO1-binding cradle molecule specificity (FIG. 26), wells of a 96-well Microlon© (Greiner) ELISA plate were treated with a 2 μg/mL solution of a GST-fusion of the appropriate target protein, or GST alone in 50 mM Tris Cl buffer containing 150 mM NaCl, pH 7.5 (TBS) and incubated for 1 hour followed by blocking with 0.5% BSA in TBS for 1 hour.

For experiment [6] the target is unchanged. As to the kind of experiment: titration phage ELISA: His-tagged target captured via BT-Tris-NTA on NeutrAvidin-coated wells, serial 5-fold dilutions of phage supernatant. In a few lines:
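Phage ELISA with phage-containing supernatant from XL21 cells grown with 0.2 mM IPTG and helper phage K07. His-tagged target (50 nM) was complexed with BT-Tris NTA on NeutrAvidin-coated, BSA-blocked wells for 30 minutes. A 30% phage supernatant and serial 5-fold dilutions in TBS/0.5% BSA were incubated for 30 minutes at room temperature. Detection used anti-M13-HRP and TMB, quenched with H₂SO₄, with absorbance at 450 nm scaled to 1 cm path-length.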
(An ELISA detects its analyte on a solid surface through an enzyme-linked reagent.)

Experiment [7] has the same target. Put plainly: SPR (Biacore 2000), monobody immobilised via His-tag on NTA surface, ySUMO flowed over it. As for the experimental part:
(§2) Cradle molecules purified as described above were immobilized via His-tag to an NTA surface using a Biacore™ 2000 instrument so that the theoretical maximum response (Rₘₐₓ) from target binding was 100-200 RU. Target protein at varying concentrations was then flowed over the surface at a flow rate of 30 μL/min and the binding signal recorded. Fitting of kinetic traces was carried out using the BIAevaluation software. For equilibrium experiments, the equilibrium binding response was recorded for multiple target concentrations and fit to a simple 1:1 saturation binding curve.

For experiment [8] the target is unchanged. Put plainly: SPR, fit of the traces to a 1:1 binding model [panel D]. The method, then:
as §2
(In general: In SPR one partner is held on a chip, and binding of the other changes the refractive index at the surface.)

For experiment [9] the target is unchanged. As to the kind of experiment: SPR (monobody on the chip via His-tag, target flowed); estimated Kd. The method, then:
as §2

For experiment [10] the target is unchanged. Put plainly: SPR.
From the text: Such high selectivity was unexpected, because the SIM-binding site is the most highly conserved surface between ySUMO and hSUMO proteins (FIG. 16A). […] Thus, it was expected that generating FnIII domain variants that bind to hSUMOs in a mode similar to the ySUMO-binding FnIII domain variants would yield clones with higher isoform selectivity toward hSUMOs.
as §2

Experiment [11] shares this target. Put plainly: SPR. As for the experimental part:
as §2
This is another data set of the same source.

For experiment [12] the target is unchanged. As to the kind of experiment: SPR; column 'Estimated Kd (nM)'. In short, it runs like this:
as §1

Changes are numbered by the printed parent chain.

T2 sequence (Q12306 3-98 limits assumed): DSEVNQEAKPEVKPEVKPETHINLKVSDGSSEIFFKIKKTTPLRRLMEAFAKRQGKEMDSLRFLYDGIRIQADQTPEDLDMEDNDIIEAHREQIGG

B1: GG3 (designed binder)
chain: VSSVPTKLEVVAATPTSLLISWDAPAVTVVHYVITYGETGGNSPVQEFTVPGSKSTATISGLSPGVDYTITVYALLSSSHWVYESPISINYRT
Turning to B1, the binding result with human Abl SH2 domain [1] was “binds”.

B2: ySMB-53 (designed binder)
chain: VSSVPTKLEVVAATPTSLLISWDASSSSVSYYRITYGETGGNSPVQEFTVPGSSSTATISGLSPGVDYTITVYAYQSFGYNEYWSSGSPISINYRT
notes: variable loops only; library YSGW
As a reminder, the Kd is the equilibrium constant for the complex coming apart. As for B2, the Kd in experiment [2] is 380 nM.

B3: SEQ ID NO 83 (designed binder)
chain: VSSVPTKLEVVAATPTSLLISWDAPAVTVFYYVITYGETGGNSPVQEFEVPGSKSTATISGLSPGVDYTITVYANYPYSYMYSPISINYRT
For B3, the binding result in the experiment with human Abl SH2 domain [1] is listed as “binds”.

B4: SEQ ID NO 84 (designed binder)
chain: B3 chain with F30D, V33L, E49T, N75W, Y76D, S79W, Y80D, M81V, Y82M
In the case of B4, the binding result with human Abl SH2 domain [1] is “binds”.

B5: SEQ ID NO 85 (designed binder)
chain: VSSVPTKLEVVAATPTSLLISWDAPAVTVDLYVITYGETGGNSPVQEFTVPGSKSTATISGLSPGVDYTITVYAGWGNWELGYSWSSPISINYRT
Take B5: in the experiment with human Abl SH2 domain [1], the binding result is given as “binds”.

B6: SH13 (designed binder)
chain: VSSVPTKLEVVAATPTSLLISWDAPAVDFYVYLITYGETGGNSPVQEFTVPGSKSTATISGLSPGVDYTITVYGYSDSWNWPYSPISINYRT
notes: also called SH13 monobody
Consider B6, for which the Kd with human Abl SH2 domain [3] is 6800 nM; in the experiment with human Abl SH2 domain [4] it was about 4000 nM.

B7: hS1MB-7 (designed binder)
chain: VSSVPTKLEVVAATPTSLLISWDASSSSVSYYEITYGETGGNSPVQEFTVPGSSSTATISGLSPGVDYTITVIAFYSHDDIYISDSPSSINYRT
Consider B7, for which the “fold weaker binding to ySUMO than to hSUMO1” value (“fold weaker binding” below) in experiment [5] is at least 100 fold. The binding result in [6] was “no binding”.

B8: ySMB-1 (designed binder)
chain: B7 chain with E33R, I73Y, F75Y, H78Y, D79Y, I81L, I83Y, D85Y
notes: it may hold only the diversified positions and not the whole FnIII domain; BC and DE loops are polyserine; also called monobody ySMB-1; FnIII domain variant ySMB-1
As usually defined, the koff is the first-order rate constant of dissociation. Higher therefore signals a short-lived complex. What is called kon is a measure of how fast the partners come together. Lower therefore signals slow association. On to B8, for which the Kd in [7] is 72 nM; in experiment [9], 72 nM; in [10], 82 nM. Also, the koff in experiment [8] turned out to be 0.09 s⁻¹. The same molecule came in with a kon in experiment [8] of 1.1e+06 M⁻¹ s⁻¹.

B9: hS1MB-23 (designed binder)
chain: B7 chain with Y31H, I73Y, F75Y, Y82F, I83Y, S84A, D85F
As for B9, in experiment [5], the “fold weaker binding” value was at least 100 fold.

B10: ySMB-2 (designed binder)
chain: VSSVPTKLEVVAATPTSLLISWDASSSSVSYYRITYGETGGNSPVQEFTVPGSSSTATISGLSPGVDYTITVYAYWTYEWGYMYDSPISINYRT
In the case of B10, the Kd in [11] and in experiment [12] was 45 nM throughout. This molecule also came in with a koff in [8] of 0.04 s⁻¹. For the same molecule, the kon in experiment [8] is 970000 M⁻¹ s⁻¹.

B11: hS1MB-16 (designed binder)
chain: B7 chain with Y31H, E33D, I73Y, F75Y, Y76N, Y82F, S84A, D85Y
With B11, the “fold weaker binding” value in experiment [5] was at least 100 fold.

B12: SEQ ID NO 81 (designed binder)
chain: VSSVPTKLEVVAATPTSLLISWDAPAVTVDLYLITYGETGGNSPVQEFKVPGSKSTATISGLSPGVDYTITVYAGSDYYYYYQGAYWSPISINYRT
In the case of B12, in the experiment with human Abl SH2 domain [1], the binding result was “binds”.

B13: ySMB-54 (designed binder)
chain: VSSVPTKLEVVAATPTSLLISWDAGYDESVMYYRITYGETGGNSPVQEFTVPGSSSTATISGLSPGVDYTITVYAYREYDGLYYSYSPISINYRT
notes: as for B2
B13: the Kd in [2] was 950 nM.
